Assay results reported in US20240116985A1 (published 2024).
Values belong to the binder of their own block, whether it stands above or below them. Starred links: 1 amine or outer side, 2 acyl side, 3 side chain; linkers in the order of their positions; H or OH if unused. Positions of bridges follow the written chain, without caps; N, C: chain ends. Non-standard residues stand in square brackets, D forms with d. Primed or numbered codes have the meaning given here. PyrS2″ = (S)-3-amino-1-((pent-4-en-1-yloxy)carbonyl)pyrrolidine-3-carboxylic acid (stapling residue), C=CCCCOC(=O)N1CC[C@@](N[*:1])(C(=O)[*:2])C1; B5(17) = 2,2-bis(4-pentenyl)glycine = 2-amino-2-(pent-4-en-1-yl)hept-6-enoic acid, stitching residue, C=CCCCC(CCCC=C)(N[*:1])C(=O)[*:2]; B5(4) = 2,2-bis(4-pentenyl)glycine = 2-amino-2-(pent-4-en-1-yl)hept-6-enoic acid (stitching residue), C=CCCCC(CCCC=C)(N[*:1])C(=O)[*:2]; B5(6) = 2-amino-2-(pent-4-en-1-yl)hept-6-enoic acid (bis(4-pentenyl)glycine), stitching residue, C=CCCCC(CCCC=C)(N[*:1])C(=O)[*:2]; TfeGA = (S)-2-amino-3-((carboxymethyl)(2,2,2-trifluoroethyl)amino)propanoic acid, O=C([C@H](CN(CC(=O)[*:3])CC(F)(F)F)N[*:1])[*:2]; PyrS2 = (S)-3-amino-1-((pent-4-en-1-yloxy)carbonyl)pyrrolidine-3-carboxylic acid, C=CCCCOC(=O)N1CC[C@@](N[*:1])(C(=O)[*:2])C1; B5(3) = 2,2-bis(4-pentenyl)glycine (stitching residue), C=CCCCC(CCCC=C)(N[*:1])C(=O)[*:2]; Qui = (S)-2-amino-3-(quinolin-2-yl)propanoic acid, O=C([C@H](Cc1ccc2ccccc2n1)N[*:1])[*:2]; Phe(4-COOH) = N[C@@H](Cc1ccc(C(=O)O)cc1)C(=O)O; Bta = N[C@@H](Cc1csc2ccccc12)C(=O)O; αAllylPro = C=CC[C@@]1(C(=O)O)CCCN1; tBuAla = CC(C)(C)C[C@H](N)C(=O)O; 3Thi = N[C@@H](Cc1ccsc1)C(=O)O; Cit = NC(=O)NCCC[C@H](N)C(=O)O; S8 = C=CCCCCCC[C@](C)(N)C(=O)O; PyrS2(4) = not defined here; TfeGA″ = not defined here; hSer = N[C@@H](CCO)C(=O)O

Key:
[1] = target: T1, full-length beta-Catenin (Uniprot ID P35222) (Homo sapiens (Human), UniProt P35222 2-781); assay: fluorescence polarization competition; full-length beta-catenin with 5FAM-TCF4(10-53) probe as competitor
T1 construct: the AlphaScreen assay uses a Histidine (Nickel Chelate) detection kit, so a His tag is likely there; also called B-Catenin; bCat
T1 sequence: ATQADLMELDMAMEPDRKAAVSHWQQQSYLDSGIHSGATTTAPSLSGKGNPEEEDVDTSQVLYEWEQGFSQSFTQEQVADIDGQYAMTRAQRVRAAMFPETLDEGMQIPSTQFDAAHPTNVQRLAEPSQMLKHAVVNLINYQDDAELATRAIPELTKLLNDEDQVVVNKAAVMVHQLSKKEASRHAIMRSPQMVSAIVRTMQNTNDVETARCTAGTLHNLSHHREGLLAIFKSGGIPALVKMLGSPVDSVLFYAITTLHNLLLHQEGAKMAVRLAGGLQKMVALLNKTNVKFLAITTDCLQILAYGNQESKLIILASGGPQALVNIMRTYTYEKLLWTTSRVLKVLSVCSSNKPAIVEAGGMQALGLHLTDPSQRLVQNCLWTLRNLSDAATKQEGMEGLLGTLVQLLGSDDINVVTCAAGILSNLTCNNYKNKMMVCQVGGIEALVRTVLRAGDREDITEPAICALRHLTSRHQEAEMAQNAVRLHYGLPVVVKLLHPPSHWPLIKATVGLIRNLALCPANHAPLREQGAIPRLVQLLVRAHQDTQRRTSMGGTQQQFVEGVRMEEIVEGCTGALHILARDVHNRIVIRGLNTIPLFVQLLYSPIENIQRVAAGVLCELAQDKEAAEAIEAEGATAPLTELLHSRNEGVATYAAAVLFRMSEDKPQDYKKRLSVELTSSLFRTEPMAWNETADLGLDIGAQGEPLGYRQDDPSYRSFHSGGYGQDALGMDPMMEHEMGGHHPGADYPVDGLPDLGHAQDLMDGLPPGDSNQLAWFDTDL
Description: (§1) The plate was incubated protected from light for 60 minutes at 20° C. prior to read. Reads were performed on a CLARIOstar plate reader (BMG Labtech) in duplicate, and data were fitted to a 1:1 binding model with hill slope using an in-house script. All provided concentrations are final concentrations.

[2] = target: T1, full-length beta-Catenin (Uniprot ID …); assay: AlphaScreen competition; full-length beta-catenin with biotin-TCF4(10-53) probe as competitor
Description: as §1, with “Equal volume of the titrated peptide was added to the” for “The”, “and” for “was”, “incubated for 15 minutes at 20° C. Then 4 uL of donor and 4 uL acceptor beads at 10 ug/mL were added to the plate, for a 16 uL reaction pool and” for “incubated”

[3] = target: T2, full-length beta-Catenin (Uniprot ID P35222) (Homo sapiens (Human), UniProt P35222 2-781); assay: fluorescence polarization competition; full-length beta-catenin with 5FAM-TCF4(10-53) probe as competitor
T2 construct: No tag is stated for the FP assay; also called bCat; B-Catenin
T2 sequence: T1 sequence
Description: as §1

[4] = target: T3, B-cat-Halo (UniProt P35222 1-781); assay: cell-based or functional assay
T3 sequence (looked up): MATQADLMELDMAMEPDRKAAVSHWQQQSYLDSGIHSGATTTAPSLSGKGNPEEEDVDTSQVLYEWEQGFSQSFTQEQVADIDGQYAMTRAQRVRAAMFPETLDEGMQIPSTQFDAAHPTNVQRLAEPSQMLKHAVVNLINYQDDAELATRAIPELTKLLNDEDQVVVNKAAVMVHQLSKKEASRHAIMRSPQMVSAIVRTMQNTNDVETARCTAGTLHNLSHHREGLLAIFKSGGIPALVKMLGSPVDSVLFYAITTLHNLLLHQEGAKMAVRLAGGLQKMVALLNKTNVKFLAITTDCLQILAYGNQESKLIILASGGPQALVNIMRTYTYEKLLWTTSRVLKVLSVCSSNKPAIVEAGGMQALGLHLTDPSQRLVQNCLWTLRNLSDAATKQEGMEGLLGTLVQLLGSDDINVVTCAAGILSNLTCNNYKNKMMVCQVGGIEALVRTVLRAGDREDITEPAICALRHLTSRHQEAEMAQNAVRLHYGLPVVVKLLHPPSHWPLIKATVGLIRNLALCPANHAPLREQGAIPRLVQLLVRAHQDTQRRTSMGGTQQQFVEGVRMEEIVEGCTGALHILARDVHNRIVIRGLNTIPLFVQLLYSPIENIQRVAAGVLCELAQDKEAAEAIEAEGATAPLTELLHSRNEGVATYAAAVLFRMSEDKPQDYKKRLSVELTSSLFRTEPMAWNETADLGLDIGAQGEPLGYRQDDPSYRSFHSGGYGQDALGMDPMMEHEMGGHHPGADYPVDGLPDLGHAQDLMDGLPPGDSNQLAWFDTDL

B1: I-155 (peptide)
peptide: ADIXDEAAFAXFWA
modifications: not fully specified; as printed: Ac-Ala-Asp-Ile-RdN-Asp-Glu-Ala-Ala-Phe-Ala-S7-Phe-Trp-Ala-NH2; N-terminal acetyl, C-terminal amide; RdN(4), S7(11); staple RdN-S7 by olefin metathesis
notes: stapled peptide
EC50 [1]: 5 µM | EC50 [2]: 0.734 µM

B4: I-497 (peptide)
peptide: Ac-[αAllylPro]DA[B5(6)][hSer]EAAFQ[S8]F[Bta]Q-NH2
modifications: staple 1-4, 4-11; not fully specified; printed as Ac-PL3-Asp-Ala-B5-Hse-Glu-Ala-Ala-Phe-Gln-S8-Phe-BztA-Gln-NH2
notes: Stapled peptide; this is the second eluting HPLC peak (staple isomer composition)
IC50 [3]: 5 µM

Binder: Ac-[αAllylPro]D[tBuAla][B5(3)]D[TfeGA″]AAFF[PyrS2(4)][3Thi][Bta]Q-NH2 (staple 1-4, 4-11; reading uncertain) [I-848]
NanoBRET Abs IC50 [4]: 7 µM

Binder: Ac-[αAllylPro]D[tBuAla][B5(3)]DLAAFN[PyrS2(4)][3Thi][Bta]H-NH2 (staple 1-4, 4-11; reading uncertain) [I-847]
NanoBRET Abs IC50 [4]: > 20 µM

Binder: Ac-[αAllylPro]DA[B5(4)]DEAAFV[S8]F[Qui]Q-NH2 (staple 1-4, 4-11, stapled peptide composition) [I-143]
EC50 [1]: 2.27 µM | EC50 [2]: 0.733 µM

Binder: Ac-[αAllylPro]DA[B5(4)]DEAAFV[S8]FWA-NH2 (staple 1-4, 4-11, stapled (stitched) peptide composition) [I-135]
EC50 [1]: 1.87 µM | EC50 [2]: 0.279 µM

Binder: Ac-[αAllylPro]D[tBuAla][B5(3)]D[Phe(4-COOH)]AAFL[PyrS2][3Thi][Bta]Q-NH2 (staple 1-4, 4-11) [I-851]
NanoBRET Abs IC50 [4]: 7.6 µM

Next, values leading:

EC50 [1]: 0.146 µM | EC50 [2]: 0.066 µM
Binder: Ac-[αAllylPro]DA[B5(4)]DEAAFV[S8]F[Bta]Q-NH2 (staple 1-4, 4-11, stapled peptide composition) [I-144]

IC50 [3]: 5 µM
B2: I-496 (peptide)
peptide: Ac-[αAllylPro]DA[B5(17)][hSer]EAAFQ[S8]F[Bta]Q-NH2
modifications: staple 1-4, 4-11; not fully specified; printed as Ac-PL3-Asp-Ala-B5-Hse-Glu-Ala-Ala-Phe-Gln-S8-Phe-BztA-Gln-NH2
notes: Stapled peptide; this is the first eluting HPLC peak (staple isomer composition)

IC50 [3]: 5 µM
B3: I-498 (peptide)
peptide: Ac-[αAllylPro]DA[B5(6)][hSer]EAAFQ[S8]F[Bta]Q-NH2
modifications: staple 1-4, 4-11; not fully specified; printed as Ac-PL3-Asp-Ala-B5-Hse-Glu-Ala-Ala-Phe-Gln-S8-Phe-BztA-Gln-NH2
notes: Stapled peptide; this is the third eluting HPLC peak (staple isomer composition)

NanoBRET Abs IC50 [4]: 41.9 µM
Binder: Ac-[αAllylPro]D[tBuAla][B5(3)]DQAAFN[PyrS2″][3Thi][Bta]H-NH2 (staple 1-4, 4-11) [I-839]

NanoBRET Abs IC50 [4]: 3.6 µM
Binder: Ac-[αAllylPro]D[tBuAla][B5(3)]D[TfeGA]AAFL[PyrS2][3Thi][Bta]Q-NH2 (staple 1-4, 4-11) [I-849]

NanoBRET Abs IC50 [4]: 47.9 µM
Binder: Ac-[αAllylPro]D[tBuAla][B5(3)]DYAAFN[PyrS2″][3Thi][Bta]Q-NH2 (staple 1-4, 4-11) [I-842]

EC50 [1]: 3.12 µM
B5: I-173 (peptide)
peptide: XDAXDXAAFVXFWQ
modifications: not fully specified; as printed: Ac-PL3-Asp-Ala-B5-Asp-EtGA-Ala-Ala-Phe-Val-S8-Phe-Trp-Gln-NH2; N-terminal acetyl, C-terminal amide; PL3(1), B5(4), EtGA(6), S8(11); staples PL3-B5 and B5-S8 by olefin metathesis
notes: stapled peptide

NanoBRET Abs IC50 [4]: 34.4 µM
Binder: Ac-[αAllylPro]D[tBuAla][B5(3)]D[Cit]AAFN[PyrS2″][3Thi][Bta]H-NH2 (staple 1-4, 4-11) [I-841]
